Values joined by “and” are separate entries in the source; they are usually repeats but may differ in a detail not shown here. Equal values may be shown once.
T1: OATP1B1 (Homo sapiens, UniProt Q9Y6L6)
T1 construct: expressed in transfected cells; host or cells: HEK293 (recombinant baculovirus-mediated transduction)
T1 sequence (Q9Y6L6 1-691): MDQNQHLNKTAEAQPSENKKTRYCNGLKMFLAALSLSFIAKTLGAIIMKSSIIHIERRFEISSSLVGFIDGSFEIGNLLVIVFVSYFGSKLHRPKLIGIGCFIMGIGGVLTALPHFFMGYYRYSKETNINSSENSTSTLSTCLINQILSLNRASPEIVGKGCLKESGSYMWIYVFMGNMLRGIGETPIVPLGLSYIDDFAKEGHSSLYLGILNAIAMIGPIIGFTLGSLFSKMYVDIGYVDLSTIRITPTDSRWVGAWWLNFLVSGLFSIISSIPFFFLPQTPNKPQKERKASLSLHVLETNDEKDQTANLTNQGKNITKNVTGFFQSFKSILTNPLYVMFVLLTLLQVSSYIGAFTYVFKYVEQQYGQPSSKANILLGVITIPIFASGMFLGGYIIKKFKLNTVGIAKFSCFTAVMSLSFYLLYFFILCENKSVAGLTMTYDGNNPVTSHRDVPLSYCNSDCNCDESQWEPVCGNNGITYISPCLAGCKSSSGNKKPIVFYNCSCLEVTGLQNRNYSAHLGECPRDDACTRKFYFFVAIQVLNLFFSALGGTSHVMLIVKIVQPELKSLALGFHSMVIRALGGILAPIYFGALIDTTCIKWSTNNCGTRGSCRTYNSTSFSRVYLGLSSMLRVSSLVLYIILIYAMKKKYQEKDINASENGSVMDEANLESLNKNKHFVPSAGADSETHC

T2: OATP1B3 (Homo sapiens, UniProt Q9NPD5)
T2 construct: expressed in transfected cells; host or cells: HEK293 (recombinant baculovirus-mediated transduction)
T2 sequence (Q9NPD5 1-702): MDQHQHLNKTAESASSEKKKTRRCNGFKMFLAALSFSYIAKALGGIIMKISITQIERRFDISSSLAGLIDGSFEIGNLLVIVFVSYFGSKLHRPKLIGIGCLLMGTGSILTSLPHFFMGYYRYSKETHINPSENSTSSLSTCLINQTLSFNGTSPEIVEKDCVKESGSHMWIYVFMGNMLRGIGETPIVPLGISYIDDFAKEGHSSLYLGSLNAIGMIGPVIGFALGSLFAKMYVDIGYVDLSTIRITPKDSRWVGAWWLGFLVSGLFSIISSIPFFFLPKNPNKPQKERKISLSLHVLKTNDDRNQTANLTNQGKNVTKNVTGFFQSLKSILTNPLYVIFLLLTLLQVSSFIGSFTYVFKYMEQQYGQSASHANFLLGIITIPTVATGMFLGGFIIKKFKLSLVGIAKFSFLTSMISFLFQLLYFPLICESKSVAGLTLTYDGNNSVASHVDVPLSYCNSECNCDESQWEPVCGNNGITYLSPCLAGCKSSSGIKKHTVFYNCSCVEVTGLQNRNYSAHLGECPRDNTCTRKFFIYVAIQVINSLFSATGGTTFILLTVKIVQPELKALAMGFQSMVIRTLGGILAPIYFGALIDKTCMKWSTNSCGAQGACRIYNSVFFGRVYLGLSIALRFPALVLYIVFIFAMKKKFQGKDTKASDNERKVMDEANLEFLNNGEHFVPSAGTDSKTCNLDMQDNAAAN

B1: OATP2B1 (Homo sapiens) (protein)
chain: MGPRIGPAGEVPQVPDKETKATMGTENTPGGKASPDPQDVRPSVFHNIKLFVLCHSLLQLAQLMISGYLKSSISTVEKRFGLSSQTSGLLASFNEVGNTALIVFVSYFGSRVHRPRMIGYGAILVALAGLLMTLPHFISEPYRYDNTSPEDMPQDFKASLCLPTTSAPASAPSNGNCSSYTETQHLSVVGIMFVAQTLLGVGGVPIQPFGISYIDDFAHNSNSPLYLGILFAVTMMGPGLAFGLGSLMLRLYVDINQMPEGGISLTIKDPRWVGAWWLGFLIAAGAVALAAIPYFFFPKEMPKEKRELQFRRKVLAVTDSPARKGKDSPSKQSPGESTKKQDGLVQIAPNLTVIQFIKVFPRVLLQTLRHPIFLLVVLSQVCLSSMAAGMATFLPKFLERQFSITASYANLLIGCLSFPSVIVGIVVGGVLVKRLHLGPVGCGALCLLGMLLCLFFSLPLFFIGCSSHQIAGITHQTSAHPGLELSPSCMEACSCPLDGFNPVCDPSTRVEYITPCHAGCSSWVVQDALDNSQVFYTNCSCVVEGNPVLAGSCDSTCSHLVVPFLLLVSLGSALACLTHTPSFMLILRGVKKEDKTLAVGIQFMFLRILAWMPSPVIHGSAIDTTCVHWALSCGRRAVCRYYNNDLLRNRFIGLQFFFKTGSVICFALVLAVLRQQDKEARTKESRSSPAVEQQLLVSGPGKKPEDSRV
B2: OATP1B1 (Homo sapiens) (protein)
chain: T1 sequence (Q9Y6L6 1-691)
B3: OAT3 (Homo sapiens) (protein)
chain: MTFSEILDRVGSMGHFQFLHVAILGLPILNMANHNLLQIFTAATPVHHCRPPHNASTGPWVLPMGPNGKPERCLRFVHPPNASLPNDTQRAMEPCLDGWVYNSTKDSIVTEWDLVCNSNKLKEMAQSIFMAGILIGGLVLGDLSDRFGRRPILTCSYLLLAASGSGAAFSPTFPIYMVFRFLCGFGISGITLSTVILNVEWVPTRMRAIMSTALGYCYTFGQFILPGLAYAIPQWRWLQLTVSIPFFVFFLSSWWTPESIRWLVLSGKSSKALKILRRVAVFNGKKEEGERLSLEELKLNLQKEISLAKAKYTASDLFRIPMLRRMTFCLSLAWFATGFAYYSLAMGVEEFGVNLYILQIIFGGVDVPAKFITILSLSYLGRHTTQAAALLLAGGAILALTFVPLDLQTVRTVLAVFGKGCLSSSFSCLFLYTSELYPTVIRQTGMGVSNLWTRVGSMVSPLVKITGEVQPFIPNIIYGITALLGGSAALFLPETLNQPLPETIEDLENWSLRAKKPKQEPEVEKASQRIPLQPHGPGLGSS
B4: OAT4 (Homo sapiens) (protein)
chain: MAFSKLLEQAGGVGLFQTLQVLTFILPCLMIPSQMLLENFSAAIPGHRCWTHMLDNGSAVSTNMTPKALLTISIPPGPNQGPHQCRRFRQPQWQLLDPNATATSWSEADTEPCVDGWVYDRSVFTSTIVAKWDLVCSSQGLKPLSQSIFMSGILVGSFIWGLLSYRFGRKPMLSWCCLQLAVAGTSTIFAPTFVIYCGLRFVAAFGMAGIFLSSLTLMVEWTTTSRRAVTMTVVGCAFSAGQAALGGLAFALRDWRTLQLAASVPFFAISLISWWLPESARWLIIKGKPDQALQELRKVARINGHKEAKNLTIEVLMSSVKEEVASAKEPRSVLDLFCVPVLRWRSCAMLVVNFSLLISYYGLVFDLQSLGRDIFLLQALFGAVDFLGRATTALLLSFLGRRTIQAGSQAMAGLAILANMLVPQDLQTLRVVFAVLGKGCFGISLTCLTIYKAELFPTPVRMTADGILHTVGRLGAMMGPLILMSRQALPLLPPLLYGVISIASSLVVLFFLPETQGLPLPDTIQDLESQKSTAAQGNRQEAVTVESTSL

Columns and labels:
OATP1B1 = molecular target: T1, OATP1B1; design: method as in PMID 23571415; settings: 10 μM in vitro; cited from earlier work
OATP1B3 = molecular target: T2, OATP1B3; design: method as in PMID 23571415; settings: 10 μM in vitro; cited from earlier work
[1] = substrate: Cc1onc(-c2c(Cl)cccc2Cl)c1C(=O)N[C@@H]1C(=O)N2[C@@H]1SC(C)(C)[C@@H]2C(=O)O; test: cells, lysate or membranes; settings: other: uptake, 2 min; pH 7.4; 37.0 °C
[2] = substrate: Cc1onc(-c2c(F)cccc2Cl)c1C(=O)N[C@@H]1C(=O)N2[C@@H]1SC(C)(C)[C@@H]2C(=O)O; test: cells, lysate or membranes; settings: other: uptake, 2 min; pH 7.4; 37.0 °C

Molecule	inhibition of OATP1B1 transport (OATP1B1)	inhibition of OATP1B3 transport (OATP1B3)	Km [1]	Km [2]
Cc1onc(-c2ccccc2Cl)c1C(=O)N[C@@H]1C(=O)N2[C@@H]1SC(C)(C)[C@@H]2C(=O)O [cloxacillin]	around 50%	around 50%		
B1			34.7 µM	41.6 µM
B2			3.22 µM and 3 µM	10.4 µM
B3			22.4 µM	27.0 µM
B4			32.9 µM	52.5 µM

Source: PMC12865225 (Clinical and Translational Science, 2026)
